Data from paper PMC10397247.

How the values were obtained:
Test in all cases: two-hybrid library CCNG1;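 further: natural log of median RNA to DNA barcode read ratio; higher means stronger binding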
4H2442-bN = biological target: T1, 4H2442-bN
T1 chain: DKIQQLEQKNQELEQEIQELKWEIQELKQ

4H2576-bN = biological target: T2, 4H2576-bN
T2 chain: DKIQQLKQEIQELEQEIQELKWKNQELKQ

4H2618-bN = biological target: T3, 4H2618-bN
T3 chain: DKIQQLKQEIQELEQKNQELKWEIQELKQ

4H2667-bN = biological target: T4, 4H2667-bN
T4 chain: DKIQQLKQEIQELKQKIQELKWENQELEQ

4H2692-bA = biological target: T5, 4H2692-bA
T5 chain: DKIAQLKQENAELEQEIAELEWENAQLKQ

4H2729-bN = biological target: T6, 4H2729-bN
T6 chain: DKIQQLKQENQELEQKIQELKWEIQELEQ

4H2931-bA = biological target: T7, 4H2931-bA
T7 chain: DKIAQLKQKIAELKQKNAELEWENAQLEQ

4H3112-bN = biological target: T8, 4H3112-bN
T8 chain: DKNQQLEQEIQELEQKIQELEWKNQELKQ

4H3185-bN = biological target: T9, 4H3185-bN
T9 chain: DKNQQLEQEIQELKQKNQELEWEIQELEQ

4H331-bN = biological target: T10, 4H331-bN
T10 chain: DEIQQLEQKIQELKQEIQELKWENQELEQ

4H3354-bN = biological target: T11, 4H3354-bN
T11 chain: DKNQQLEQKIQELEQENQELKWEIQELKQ

4H338-bN = biological target: T12, 4H338-bN
T12 chain: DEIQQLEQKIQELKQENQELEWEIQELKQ

4H3427-bN = biological target: T13, 4H3427-bN
T13 chain: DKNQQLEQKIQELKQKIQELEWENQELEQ

4H3782-bN = biological target: T14, 4H3782-bN
T14 chain: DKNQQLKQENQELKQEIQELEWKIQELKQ

4H3855-bN = biological target: T15, 4H3855-bN
T15 chain: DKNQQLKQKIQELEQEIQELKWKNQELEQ

4H4001-bN = biological target: T16, 4H4001-bN
T16 chain: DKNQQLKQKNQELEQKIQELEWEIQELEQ

4H454-bN = biological target: T17, 4H454-bN
T17 chain: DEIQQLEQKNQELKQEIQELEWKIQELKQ

4H568-bN = biological target: T18, 4H568-bN
T18 chain: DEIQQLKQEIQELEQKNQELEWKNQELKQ

4H607-bN = biological target: T19, 4H607-bN
T19 chain: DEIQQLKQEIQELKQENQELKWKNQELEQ

4H687-bN = biological target: T20, 4H687-bN
T20 chain: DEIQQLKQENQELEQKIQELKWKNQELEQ

4H717-bN = biological target: T21, 4H717-bN
T21 chain: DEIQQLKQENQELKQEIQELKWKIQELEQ

4H72-bN = biological target: T22, 4H72-bN
T22 chain: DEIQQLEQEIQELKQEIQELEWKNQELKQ

4H754-bN = biological target: T23, 4H754-bN
T23 chain: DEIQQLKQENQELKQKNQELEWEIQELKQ

4H797-bN = biological target: T24, 4H797-bN
T24 chain: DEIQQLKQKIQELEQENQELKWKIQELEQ

4H883-bN = biological target: T25, 4H883-bN
T25 chain: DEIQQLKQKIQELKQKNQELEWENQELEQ

4H908-bN = biological target: T26, 4H908-bN
T26 chain: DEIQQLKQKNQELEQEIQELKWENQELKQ

4H918-bN = biological target: T27, 4H918-bN
T27 chain: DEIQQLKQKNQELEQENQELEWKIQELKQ

4H953-bN = biological target: T28, 4H953-bN
T28 chain: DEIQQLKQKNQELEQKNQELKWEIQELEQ

4H967-bN = biological target: T29, 4H967-bN
T29 chain: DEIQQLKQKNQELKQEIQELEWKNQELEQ

4H170-bA = biological target: T30, 4H170-bA
T30 chain: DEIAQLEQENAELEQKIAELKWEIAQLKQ

4H1831-bA = biological target: T31, 4H1831-bA
T31 chain: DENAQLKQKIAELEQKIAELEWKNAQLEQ

4H2586-bA = biological target: T32, 4H2586-bA
T32 chain: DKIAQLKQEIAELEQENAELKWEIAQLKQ

4H2627-bA = biological target: T33, 4H2627-bA
T33 chain: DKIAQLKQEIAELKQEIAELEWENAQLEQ

4H2673-bA = biological target: T34, 4H2673-bA
T34 chain: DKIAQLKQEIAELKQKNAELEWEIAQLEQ

4H2702-bA = biological target: T35, 4H2702-bA
T35 chain: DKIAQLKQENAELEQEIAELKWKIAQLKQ

4H3010-bA = biological target: T36, 4H3010-bA
T36 chain: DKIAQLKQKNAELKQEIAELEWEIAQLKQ

4H3112-bA = biological target: T37, 4H3112-bA
T37 chain: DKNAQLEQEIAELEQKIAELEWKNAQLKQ

4H3427-bA = biological target: T38, 4H3427-bA
T38 chain: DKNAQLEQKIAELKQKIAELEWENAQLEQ

4H346-bA = biological target: T39, 4H346-bA
T39 chain: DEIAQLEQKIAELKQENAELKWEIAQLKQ

4H3926-bA = biological target: T40, 4H3926-bA
T40 chain: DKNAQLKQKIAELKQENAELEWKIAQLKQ

4H4073-bA = biological target: T41, 4H4073-bA
T41 chain: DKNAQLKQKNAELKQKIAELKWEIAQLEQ

4H457-bA = biological target: T42, 4H457-bA
T42 chain: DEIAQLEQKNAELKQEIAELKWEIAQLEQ

4H575-bA = biological target: T43, 4H575-bA
T43 chain: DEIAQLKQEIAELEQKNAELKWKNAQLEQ

4H683-bA = biological target: T44, 4H683-bA
T44 chain: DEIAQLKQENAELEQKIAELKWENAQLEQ

4H754-bA = biological target: T45, 4H754-bA
T45 chain: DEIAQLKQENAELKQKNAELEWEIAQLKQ

4H780-bA = biological target: T46, 4H780-bA
T46 chain: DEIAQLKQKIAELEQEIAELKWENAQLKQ

4H797-bA = biological target: T47, 4H797-bA
T47 chain: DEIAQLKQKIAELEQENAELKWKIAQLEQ

4H855-bA = biological target: T48, 4H855-bA
T48 chain: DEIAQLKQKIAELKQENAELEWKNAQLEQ

4H918-bA = biological target: T49, 4H918-bA
T49 chain: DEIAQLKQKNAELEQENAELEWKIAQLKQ

4H953-bA = biological target: T50, 4H953-bA
T50 chain: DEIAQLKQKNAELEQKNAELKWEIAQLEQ

4H968-bA = biological target: T51, 4H968-bA
T51 chain: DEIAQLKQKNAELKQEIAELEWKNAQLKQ

4H2745-bH = biological target: T52, 4H2745-bH
T52 chain: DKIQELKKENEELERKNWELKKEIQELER

4H344-bH = biological target: T53, 4H344-bH
T53 chain: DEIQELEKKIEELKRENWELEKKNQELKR

4H363-bH = biological target: T54, 4H363-bH
T54 chain: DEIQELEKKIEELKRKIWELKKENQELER

4H3907-bH = biological target: T55, 4H3907-bH
T55 chain: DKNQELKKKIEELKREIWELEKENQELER

4H3961-bH = biological target: T56, 4H3961-bH
T56 chain: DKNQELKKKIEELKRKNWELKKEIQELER

4H470-bH = biological target: T57, 4H470-bH
T57 chain: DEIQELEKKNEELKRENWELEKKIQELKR

4H591-bA = biological target: T58, 4H591-bA
T58 chain: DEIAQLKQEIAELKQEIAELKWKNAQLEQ

4H626-bA = biological target: T59, 4H626-bA
T59 chain: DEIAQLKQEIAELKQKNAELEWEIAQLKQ

4H906-bA = biological target: T60, 4H906-bA
T60 chain: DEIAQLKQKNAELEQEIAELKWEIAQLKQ

P1A-bH = biological target: T61, P1A-bH
T61 chain: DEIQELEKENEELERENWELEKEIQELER

4H2944-bH = biological target: T62, 4H2944-bH
T62 chain: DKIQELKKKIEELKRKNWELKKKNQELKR

4H342-bH = biological target: T63, 4H342-bH
T63 chain: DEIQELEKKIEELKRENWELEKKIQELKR

4H48-bH = biological target: T64, 4H48-bH
T64 chain: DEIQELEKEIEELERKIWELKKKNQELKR

4H491-bH = biological target: T65, 4H491-bH
T65 chain: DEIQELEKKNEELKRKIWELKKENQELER

B1: 4H2442-bN (peptide)
chain: DKIQQLEQKNQELEQEIQELKWEIQELKQ
interaction score (4H2442-bN): -0.216
interaction score (4H2576-bN): -0.32
interaction score (4H2618-bN): 0.706
interaction score (4H2667-bN): 0.241
interaction score (4H2692-bA): -0.104
interaction score (4H2729-bN): 0.367
interaction score (4H2931-bA): 0.256
interaction score (4H3112-bN): -0.821
interaction score (4H3185-bN): -1.14
interaction score (4H331-bN): 0.796
interaction score (4H3354-bN): -0.568
interaction score (4H338-bN): -0.476
interaction score (4H3427-bN): -0.236
interaction score (4H3782-bN): 0.148
interaction score (4H3855-bN): -0.731
interaction score (4H4001-bN): 0.0198
interaction score (4H454-bN): 0.883
interaction score (4H568-bN): -0.89
interaction score (4H607-bN): -1.3
interaction score (4H687-bN): -0.717
interaction score (4H717-bN): -1.28
interaction score (4H72-bN): -0.588
interaction score (4H754-bN): -0.65
interaction score (4H797-bN): -0.491
interaction score (4H883-bN): -0.738
interaction score (4H908-bN): -0.788
interaction score (4H918-bN): -0.127
interaction score (4H953-bN): -0.933
interaction score (4H967-bN): -0.892

B2: 4H170-bA (peptide)
chain: DEIAQLEQENAELEQKIAELKWEIAQLKQ
interaction score (4H170-bA): 0.744
interaction score (4H1831-bA): -1.05
interaction score (4H2586-bA): -0.588
interaction score (4H2627-bA): 1.23
interaction score (4H2673-bA): 1.01
interaction score (4H2702-bA): 2.21
interaction score (4H3010-bA): 2.15
interaction score (4H3112-bA): -0.374
interaction score (4H3427-bA): 0.122
interaction score (4H346-bA): -1.19
interaction score (4H3926-bA): 1.67
interaction score (4H4073-bA): 1.89
interaction score (4H457-bA): 1.56
interaction score (4H575-bA): -0.482
interaction score (4H683-bA): -0.581
interaction score (4H754-bA): -0.923
interaction score (4H780-bA): -0.413
interaction score (4H797-bA): -0.00525
interaction score (4H855-bA): -0.225
interaction score (4H918-bA): 0.927
interaction score (4H953-bA): 0.253
interaction score (4H968-bA): 2.27

B3: 4H2745-bH (peptide)
chain: DKIQELKKENEELERKNWELKKEIQELER
interaction score (4H2745-bH): -0.337
interaction score (4H344-bH): -0.814
interaction score (4H363-bH): -0.763
interaction score (4H3907-bH): -0.566
interaction score (4H3961-bH): -0.688
interaction score (4H470-bH): 1.22

B4: 4H591-bA (peptide)
chain: DEIAQLKQEIAELKQEIAELKWKNAQLEQ
interaction score (4H591-bA): 1.45
interaction score (4H626-bA): -1.82
interaction score (4H906-bA): -1.23
interaction score (P1A-bH): 0.0694

B5: 4H2944-bH (peptide)
chain: DKIQELKKKIEELKRKNWELKKKNQELKR
interaction score (4H2944-bH): -0.179
interaction score (4H342-bH): 0.551
interaction score (4H48-bH): 0.638
interaction score (4H491-bH): -0.773
